This note sets out measurements from paper PMC2889250.

Common to all, as to experiment: SDS-PAGE
Experiment [1] has as its target recombinant NaK channel.
For experiment [2], the target named is recombinant NaK channel. The source holds these as a separate data set.
The target in experiment [3] is semisynthetic NaK channel (residues 19-110).

Like-named read-outs stand apart in the source and are kept apart here.

Consider “recombinant NaK channel (natural protein)”, for which the stoichiometry N in experiment [1] and in experiment [2] was 4 in each case.
Regarding “semisynthetic NaK channel (residues 19-110) (natural protein)”, the stoichiometry N in experiment [3] stood at 4.

For orientation: stoichiometry N means the number of molecules, sites or subunits per partner or assembly.
